The text below walks through data of patent US20200325239A1, “Modulation of Aminopeptidase N/CD13 and Rheumatoid Arthritis” (THE REGENTS OF THE UNIVERSITY OF MICHIGAN, priority 2016, published 2020).

For test [1], the system named is C57Bl/6 mice. The experiment in a line: Matrigel plug angiogenesis assay in vivo (hemoglobin). Further details: species or system mouse. The settings on record: subcutaneous Matrigel 500 μl, plugs harvested after 7 days. How it is done: FIG. 13. To test the effect of CD13 in angiogenesis in vivo, Matrigel plug assays were performed using C57Bl/6 mice. Each mouse was given a subcutaneous injection of sterile GFR Matrigel (500 μl/injection) containing either CD13 or PBS, a negative control. Matrigel plugs were harvested after 7 days. Hemoglobin (Hb) was determined. […] Results are represented as the mean+SEM and *p<0.05 was considered significant. n=number of mice per group.
This assay is performed as described previously (56-58). RA SFs sham- or CD13-depleted (50 μl in 500 μl of Matrigel) are injected subcutaneously in C57Bl/6 mice. After 7 days, the mice are euthanized and the Matrigel plugs are removed, weighed, and processed for hemoglobin (Hb) measurement or immunofluorescence. Hemoglobin (Hb) concentration is determined either by the Drabkin method using a Drabkin's reagent kit (Sigma) or with the 3,3,5,5-tetramethylbenzidine substrate system (Sigma) (56, 61, 62). Hb values are normalized to plug weight.

The subject of test [2] is Human dermal microvascular endothelial cell (HMVEC). The experiment in a line: HMVEC tube formation on growth factor-reduced Matrigel. The settings on record: GFR Matrigel. Format: cell-based. As for the experimental part: FIG. 11. Human dermal microvascular endothelial cell (HMVEC) tube formation was assessed on growth factor-reduced Matrigel (GFR, BD Biosciences) with CD13. […] Arrows indicate the number of tubes formed in each group. n=number of replicates in each group. The number of tubes formed was quantitated by an observer blinded to the experimental groups.
HMVEC Matrigel tube formation assay. After finding that CD13 is chemotactic for HMVECs, the role of CD13 in RA is examined by performing HMVEC capillary morphogenesis assay on Matrigel tube with sham- or CD13-depleted RA SFs. Growth factor-reduced Matrigel (GFR, BD Biosciences) is used to perform this assay (56-58). CD13- or sham-depleted RA SFs are used as test groups (58). The chambers are incubated for 16 to 18 hours at 37° C. in a 5% CO2 humidified atmosphere. Cells are fixed and stained with Diff-Quik. The number of tubes formed is quantitated by an observer blinded to the experimental groups. bFGF (30 nM) and phosphate buffered saline (PBS) serve as positive and negative controls, respectively.

Test [3] relates to normal human MN. Kind of test: Normal human MN chemotaxis in modified Boyden chambers. The format is cell-based. The settings on record: PBS negative control. How it is done:
FIG. 14. To evaluate the contribution of CD13 to RA inflammation by recruiting MNs, normal human MN chemotaxis assays were performed in modified Boyden chambers. […] PBS served as negative control. n=number of experiments. The results are expressed as mean+SEM and *p<0.05 was considered significant. n=number of replicates.

Test [4] relates to RA FLS. Kind of test: FLS growth assay (Essen IncuCyte, percent confluence). The format is cell-based, human. The note with it: proliferation and migration. How it is done:
FIG. 5. […] FLS were seeded on 96-well plates overnight. An Essen Incucyte system was used for both growth (A) and migration (B) assays. Growth was calculated as the difference in percent confluence from time 0. Migration was measured in a scratch-wound assay using relative wound density. All data are expressed as a ratio to untreated FLS of the same cell line. mean±SEM n≥4 (*p≤0.05).
RA FLS were seeded on Essen Image Lock 96-well plates (Essen Bioscience, Ann Arbor, Mich.) overnight at either 3,000 cells/well for growth or 30,000 cells/well for migration. For growth, the 20% FBS CMRL media was removed and cells were washed 1× with PBS. 100 μl of medium alone (control) or medium containing anti-CD3 (25 or 50 ng/ml, OKT3, used as a non-reactive isotype control antibody in this experiment), anti-CD13 1D7 or WM15 (Biolegend, San Diego, Calif.) (25 or 50 ng/ml), or CD13 chemical inhibitors actinonin (Sigma-Aldrich, St. Louis, Mo.) or bestatin (Sigma-Aldrich, St. Louis, Mo.) (10 μM and 50 μM, respectively) was added to the wells. Images and confluence data were collected using an Essen IncuCyte (Essen Bioscience, Ann Arbor, Mich.). For the scratch-wound migration assay, wounds were made via the Essen scratch-wound tool in the seeded 96-well plate. Plates were then washed 2× with PBS and medium was added similar to the growth plates. Data were collected and the confluence or relative wound density calculated by the Essen IncuCyte.

Test [5] has as its system Human dermal microvascular endothelial cell (HMVEC). The experiment in a line: HMVEC chemotaxis in modified Boyden chamber. The note with it: p<0.05 vs PBS; dose-dependent. The format is cell-based. How it is done: FIG. 10. Human dermal microvascular endothelial cell (HMVEC) chemotaxis was performed in a modified Boyden chamber using CD13 at various concentrations. […] CD13 induced HMVEC migration from 500-2000 ng/ml (p<0.05). Data represent the mean of 3 individual experiments±SEM. Three high-power fields (hpf) (×400) were counted in each replicate well and results were expressed as cells per hpf. PBS served as negative control.

The subject of test [6] is C57Bl/6 mice. The experiment in a line: Mouse model of inflammatory arthritis, intra-articular injection into knee joints. The format is in vivo. The note with it: 500 ng in 20 μl of PBS, 24 and 48 hours. As for the experimental part:
To use the mouse model of inflammatory arthritis, female C57Bl/6 mice (8-10 weeks old, Harlan Laboratories) are anesthetized with ketamine (80-120 mg/kg body weight) and xylazine (5-10 mg/kg body weight) intraperitoneally, and the knee circumference is determined by caliper measurements before intra-articular injection, as described (67). The anesthetized mice receive 20 μl/knee joint of PBS and recombinant mouse CD13 (500 ng in 20 μl of PBS). Circumference measurements are obtained in a blinded manner. Mice are euthanized after 24 and 48 hours of the intraarticular injection. Mouse knees are measured before euthanasia. Hematoxylin and eosin (H&E) staining of the mouse knee cryosections is performed to determine the inflammatory response of CD13 (67). Immunofluorescence staining is also performed on cryosections using rat anti-mouse F4/80 antibody (GenTex) to detect MNs/macrophages. The number of F4/80-positive MNs/macrophages is calculated as the average number of cells in 3 fields (400X).

B1: CD13: recombinant Aminopeptidase N/CD13 used as stimulus; recombinant mouse CD13 planned for knee injection (protein, UniProt P15144 2-967, looked up)
Aminopeptidase N: AKGFYISKSLGILGILLGVAAVCTIIALSVVYSQEKNKNANSSPVASTTPSASATTNPASATTLDQSKAWNRYRLPNTLKPDSYRVTLRPYLTPNDRGLYVFKGSSTVRFTCKEATDVIIIHSKKLNYTLSQGHRVVLRGVGGSQPPDIDKTELVEPTEYLVVHLKGSLVKDSQYEMDSEFEGELADDLAGFYRSEYMEGNVRKVVATTQMQAADARKSFPCFDEPAMKAEFNITLIHPKDLTALSNMLPKGPSTPLPEDPNWNVTEFHTTPKMSTYLLAFIVSEFDYVEKQASNGVLIRIWARPSAIAAGHGDYALNVTGPILNFFAGHYDTPYPLPKSDQIGLPDFNAGAMENWGLVTYRENSLLFDPLSSSSSNKERVVTVIAHELAHQWFGNLVTIEWWNDLWLNEGFASYVEYLGADYAEPTWNLKDLMVLNDVYRVMAVDALASSHPLSTPASEINTPAQISELFDAISYSKGASVLRMLSSFLSEDVFKQGLASYLHTFAYQNTIYLNLWDHLQEAVNNRSIQLPTTVRDIMNRWTLQMGFPVITVDTSTGTLSQEHFLLDPDSNVTRPSEFNYVWIVPITSIRDGRQQQDYWLIDVRAQNDLFSTSGNEWVLLNLNVTGYYRVNYDEENWRKIQTQLQRDHSAIPVINRAQIINDAFNLASAHKVPVTLALNNTLFLIEERQYMPWEAALSSLSYFKLMFDRSEVYGPMKNYLKKQVTPLFIHFRNNTNNWREIPENLMDQYSEVNAISTACSNGVPECEEMVSGLFKQWMENPNNNPIHPNLRSTVYCNAIAQGGEEEWDFAWEQFRNATLVNEADKLRAALACSKELWILNRYLSYTLNPDLIRKQDATSTIISITNNVIGQGLVWDFVQSNWKKLFNDYGGGSFSFSNLIQAVTRRFSTEYELQQLEQFKKDNEETGFGSGTRALEQALEKTKANIKWVKENKEVVLQWFTENSK
On to B1, for which the “hemoglobin (Hb) in Matrigel plugs compared to PBS” value in test [1] is “more than a four-fold increase in Hb”. Further, the “EC tubes formed compared to PBS” value in test [2] was “almost two-fold more numerous”. Further, the MN migration entry in test [3] is on record as “concentration-dependent increase in MN migration”. The “effect of additional rhCD13 on RA FLS proliferation and migration” value in test [4] is “did not consistently affect the RA FLS”. In addition, the “concentrations at which HMVEC migration was induced” value in test [5] fell in the range of 500 to 2000 ng/mL. The “increase in mouse knee circumference compared to PBS” value in test [6] is 2-3 fold.
